The record followed here is the supplement of paper PMC11316812.

Series [1] relates to MCF7. Nature of the series: percentage of EdU-negative (G0-arrested) nuclei per well, 72 h; higher = more G0 arrest. As to conditions: reference: sequence is the full UniProt precursor, the tested protein was the secreted form or ectodomain.
Series [2] has as its system hTERT-HMEC. The series is described as above. As to conditions: reference: sequence is the full UniProt precursor, the tested protein was the secreted form or ectodomain.
Where [3] appears, read: protein concentration 0.0225 µM.
Setting [4] is: protein concentration 0.0171429 µM.
[5] abbreviates: protein concentration 0.171429 µM.
Setting [6] is: protein concentration 0.03125 µM.
The mark [7] stands for this setting: protein concentration 0.3125 µM.
The mark [8] stands for this setting: protein concentration 0.0065 µM.

± gives the standard deviation of the averaged measurements.
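Also: secreted proteins added to cultured cells, EdU pulse at the end, nuclei found by Hoechst imaging, EdU status from nuclear versus surrounding ring intensity ratio, PBS as neutral control.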

Consider “MWDLVLSIALSVGCTGAVPLIQSRIVGGWECEKHSQPWQVAVYSHGWAHCGGVLVHPQWVLTAAHCLKKNSQVWLGRHNLFEPEDTGQRVPVSHSFPHPLYNMSLLKHQSLRPDEDSSHDLMLLRLSEPAKITDVVKVLGLPTQEPALGTTCYASGWGSIEPEEFLRPRSLQCVSLHLLSNDMCARAYSEKVTEFMLCAGLWTGGKDTCGGDSGGPLVCNGVLQGITSWGPEPCALPEKPAVYTKVVHYRKWIKDTIAANP”, for which the “percentage of EdU-negative” value in series [1] (setting [3]) was 23.8 ± 1.7%; in series [1] (protein concentration 0.225 µM) it was 24.8 ± 1.2%; in series [2] (setting [3]), 4.38 ± 0.36%; in series [2] (protein concentration 0.225 µM), 5.65 ± 0.28%.

Regarding “MTPPRLFWVWLLVAGTQGVNDGDMRLADGGATNQGRVEIFYRGQWGTVCDNLWDLTDASVVCRALGFENATQALGRAAFGQGSGPIMLDEVQCTGTEASLADCKSLGWLKSNCRHERDAGVVCTNETRSTHTLDLSRELSEALGQIFDSQRGCDLSISVNVQGEDALGFCGHTVILTANLEAQALWKEPGSNVTMSVDAECVPMVRDLLRYFYSRRIDITLSSVKCFHKLASAYGARQLQGYCASLFAILLPQDPSFQMPLDLYAYAVATGDALLEKLCLQFLAWNFEALTQAEAWPSVPTDLLQLLLPRSDLAVPSELALLKAVDTWSWGERASHEEVEGLVEKIRFPMMLPEELFELQFNLSLYWSHEALFQKKTLQALEFHTVPFQLLARYKGLNLTEDTYKPRIYTSPTWSAFVTDSSWSARKSQLVYQSRRGPLVKYSSDYFQAPSDYRYYPYQSFQTPQHPSFLFQDKRVSWSLVYLPTIQSCWNYGFSCSSDELPVLGLTKSGGSDRTIAYENKALMLCEGLFVADVTDFEGWKAAIPSALDTNSSKSTSSFPCPAGHFNGFRTVIRPFYLTNSSGVD”, the “percentage of EdU-negative” value came to 23.8 ± 3.7% in series [1] (setting [4]), 27.9 ± 1.7% in series [1] (setting [5]), 6.12 ± 0.82% in series [2] (setting [4]) and 8.84 ± 1.8% in series [2] (setting [5]).

On to “MRALVLLLSLFLLGGQAQHVSDWTYSEGALDEAHWPQHYPACGGQRQSPINLQRTKVRYNPSLKGLNMTGYETQAGEFPMVNNGHTVQISLPSTMRMTVADGTVYIAQQMHFHWGGASSEISGSEHTVDGIRHVIEIHIVHYNSKYKSYDIAQDAPDGLAVLAAFVEVKNYPENTYYSNFISHLANIKYPGQRTTLTGLDVQDMLPRNLQHYYTYHGSLTTPPCTENVHWFVLADFVKLSRTQVWKLENSLLDHRNKTIHNDYRRTQPLNHRVVESNFPNQEYTLGSEFQFYLHKIEEILDYLRRALN”, for which the “percentage of EdU-negative” value came out at 24.6 ± 1.3% in series [1] (setting [6]), 23.7 ± 0.28% in series [1] (setting [7]), 5.04 ± 0.54% in series [2] (setting [6]) and 4.6 ± 0.89% in series [2] (setting [7]).

On to “MRAAGTLLAFCCLVLSTTGGPSPDTCSQDLNSRVKPGFPKTIKTNDPGVLQAARYSVEKFNNCTNDMFLFKESRITRALVQIVKGLKYMLEVEIGRTTCKKNQHLRLDDCDFQTNHTLKQTLSCYSEVWVVPWLQHFEVPVLRCH”, for which the “percentage of EdU-negative” value in series [1] (setting [3]) is 27.2 ± 0.74%; in series [1] (protein concentration 0.225 µM), 27.2 ± 1.1%; in series [2] (setting [3]) it was 4.61 ± 0.72%; in series [2] (protein concentration 0.225 µM) it was 4.863 ± 0.024%.

On to “MARPVRGGLGAPRRSPCLLLLWLLLLRLEPVTAAAGPRAPCAAACTCAGDSLDCGGRGLAALPGDLPSWTRSLNLSYNKLSEIDPAGFEDLPNLQEVYLNNNELTAVPSLGAASSHVVSLFLQHNKIRSVEGSQLKAYLSLEVLDLSLNNITEVRNTCFPHGPPIKELNLAGNRIGTLELGAFDGLSRSLLTLRLSKNRITQLPVRAFKLPRLTQLDLNRNRIRLIEGLTFQGLNSLEVLKLQRNNISKLTDGAFWGLSKMHVLHLEYNSLVEVNSGSLYGLTALHQLHLSNNSIARIHRKGWSFCQKLHELVLSFNNLTRLDEESLAELSSLSVLRLSHNSISHIAEGAFKGLRSLRVLDLDHNEISGTIEDTSGAFSGLDSLSKLTLFGNKIKSVAKRAFSGLEGLEHLNLGGNAIRSVQFDAFVKMKNLKELHISSDSFLCDCQLKWLPPWLIGRMLQAFVTATCAHPESLKGQSIFSVPPESFVCDDFLKPQIITQPETTMAMVGKDIRFTCSAASSSSSPMTFAWKKDNEVLTNADMENFVHVHAQDGEVMEYTTILHLRQVTFGHEGRYQCVITNHFGSTYSHKARLTVNVLPSFTKTPHDITIRTTTMARLECAATGHPNPQIAWQKDGGTDFPAARERRMHVMPDDDVFFITDVKIDDAGVYSCTAQNSAGSISANATLTVLETPSLVVPLEDRVVSVGETVALQCKATGNPPPRITWFKGDRPLSLTERHHLTPDNQLLVVQNVVAEDAGRYTCEMSNTLGTERAHSQLSVLPAAGCRKDGTTVGIFTIAVVSSIVLTSLVWVCIIYQTRKKSEEYSVTNTDETVVPPDVPSYLSSQGTLSDRQETVVRTEGGPQANGHIESNGVCPRDASHFPEPDTHSVACRQPKLCAGSAYHKEPWKAMEKAEGTPGPHKMEHGGRVVCSDCNTEVDCYSRGQAFHPQPVSRDSAQPSAPNGPEPGGSDQEHSPHHQCSRTAAGSCPECQGSLYPSNHDRMLTAVKKKPMASLDGKGDSSWTLARLYHPDSTELQPASSLTSGSPERAEAQYLLVSNGHLPKACDASPESTPLTGQLPGKQRVPLLLAPKS [Q96JA1]”, for which the “percentage of EdU-negative” value in series [1] (setting [8]) stood at 25.4 ± 1%; in series [1] (protein concentration 0.065 µM), 25.8 ± 3.1%; in series [2] (setting [8]) it was 4.69 ± 0.4%; in series [2] (protein concentration 0.065 µM) it was 8.75 ± 1.2%.
